Results reported in PMC7233811, “Small molecule inhibits T-cell acute lymphoblastic leukaemia oncogenic interaction through conformational modulation of LMO2” (Oncotarget, 2020).

Tests used:
[1] = target: SCL/E2A complex (Homo sapiens) (UniProt P17542); assay: given as Ka; settings: cited from earlier work
[2] = target: T1, LMO2 (LIM only protein 2) (Homo sapiens, UniProt P25791); assay: microscale thermophoresis (NT647-labelled protein); supported by STD-NMR, SAXS and HTRF PPI inhibition (IC50 […]); assay type: binding
T1 construct: tandem LIM-domain construct of LMO2 fused to the LDB1^LID (FLINC2); with LDB1 LID (fused)
T1 sequence (P25791 30-153 limits assumed): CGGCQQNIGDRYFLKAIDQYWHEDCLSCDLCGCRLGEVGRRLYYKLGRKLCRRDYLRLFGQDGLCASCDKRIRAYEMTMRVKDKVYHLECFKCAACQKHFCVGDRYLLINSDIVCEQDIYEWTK
T1 sequence (Q86U70 336-375 partner limits assumed): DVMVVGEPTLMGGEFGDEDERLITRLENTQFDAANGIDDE

Chain of LMO2 (P25791 whole entry, the tested form may be a part): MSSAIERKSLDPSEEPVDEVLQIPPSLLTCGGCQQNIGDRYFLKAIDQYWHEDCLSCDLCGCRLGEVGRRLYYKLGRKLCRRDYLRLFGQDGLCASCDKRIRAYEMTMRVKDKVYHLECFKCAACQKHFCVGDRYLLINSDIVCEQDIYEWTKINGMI
Chain of SCL/E2A complex (Homo sapiens) (P17542 whole entry, chain 1 of 2): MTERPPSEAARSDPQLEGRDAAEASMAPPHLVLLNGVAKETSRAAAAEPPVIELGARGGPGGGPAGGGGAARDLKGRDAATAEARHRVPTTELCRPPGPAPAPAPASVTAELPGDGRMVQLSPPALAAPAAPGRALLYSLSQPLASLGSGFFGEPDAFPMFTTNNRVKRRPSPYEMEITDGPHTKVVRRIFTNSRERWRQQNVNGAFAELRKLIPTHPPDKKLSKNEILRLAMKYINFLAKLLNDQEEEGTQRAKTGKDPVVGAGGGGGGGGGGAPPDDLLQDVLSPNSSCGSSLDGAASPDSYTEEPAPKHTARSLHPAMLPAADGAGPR
Chain of SCL/E2A complex (Homo sapiens) (P15923 whole entry, chain 2 of 2, further chain): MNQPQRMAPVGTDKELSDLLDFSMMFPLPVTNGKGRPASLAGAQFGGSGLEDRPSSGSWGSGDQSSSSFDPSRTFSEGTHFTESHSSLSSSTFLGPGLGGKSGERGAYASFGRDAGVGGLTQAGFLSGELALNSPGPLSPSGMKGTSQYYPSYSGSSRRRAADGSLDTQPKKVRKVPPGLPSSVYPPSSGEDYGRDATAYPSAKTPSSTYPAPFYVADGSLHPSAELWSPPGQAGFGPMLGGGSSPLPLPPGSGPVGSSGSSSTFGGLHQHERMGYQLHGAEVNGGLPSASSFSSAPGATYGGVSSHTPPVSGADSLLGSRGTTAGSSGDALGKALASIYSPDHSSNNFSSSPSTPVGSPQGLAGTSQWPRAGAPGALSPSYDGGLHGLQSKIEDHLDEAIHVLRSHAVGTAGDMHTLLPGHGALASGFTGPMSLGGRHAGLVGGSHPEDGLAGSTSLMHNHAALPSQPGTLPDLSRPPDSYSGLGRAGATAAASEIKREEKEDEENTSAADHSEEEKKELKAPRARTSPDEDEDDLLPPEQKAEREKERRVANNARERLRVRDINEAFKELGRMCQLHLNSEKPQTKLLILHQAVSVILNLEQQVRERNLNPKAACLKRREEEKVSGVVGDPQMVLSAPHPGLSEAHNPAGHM

Row | Compound | Kd [1] [µM] | Kd [2] [µM]
1 | LMO2 (from UniProt P25791) | 0.00556 | 
2 | Cc1cc(C)cc(C2(C(=O)N3CCOCC(Cc4ccc5nccn5c4)C3)CCOCC2)c1 (centres unmarked) [3K7] |  | 1.2
